Assay [1] deals with Human Myelin PLP. As to the kind of experiment: Phage display library screening (Example 1, Power BI analysis), binding to Human Myelin PLP. Particulars: R3 Myelin PLP, NextGen sequencing count of phage sequences distinct for this target. The text has this:
(§1) Phage display library screens were used to identify peptides that bind to target proteins that are expressed in human nerves and could therefore be useful for systemic in-vivo labeling of nerves during fluorescence assisted surgery. Specifically, m13 phage libraries expressing 7 or 12 random amino acid peptides, or a cyclic peptide CX7C, on the N-terminus of the minor coat protein pIII (New England Biolabs) were processed through multiple rounds of selection for binding to target proteins expressed in peripheral nerve (Table 1).
(§2) The library was processed through up to 4 binding and wash cycles. For selection, phage libraries were incubated for up to 24 hours at 4° C. in 96 well plates that had been coated with one of the target proteins. Plates were then washed with PBS and phage were eluted using 0.2M glycine pH 2.0. Phage supernatants where then neutralized with Tris pH 9.0 prior to plating on TG1 bacteria and LB agar plates. Colonies were counted to determine titer followed by DNA preparation of pools of phage and NextGen sequencing. After rounds of selection, phage were pooled and amplified for iterative selection. Phage that were bound at each round were sequenced. NextGen sequencing of pools after 2, 3 and 4 rounds of selection was used to isolate candidate sequences that were analyzed further to identify those that specifically bound each unique target protein.
(§3) DNA sequences were trimmed of all vector amino acids and imported as a peptide dataset into Power BI. Power BI was used to identify phage display sequences for specific columns (corresponding to each target protein) in order to identify sequences that were distinct for each protein target. The Power BI code evaluated each individual sequence for each protein target against the sequences present in other protein targets in a test for uniqueness. Using the distinct flag, the Power BI code generated a filtered peptide dataset that excluded any peptide sequence that occur in more than one column which identified a specific protein target. This method therefore identified candidate peptide sequences showing selective binding to an individual target protein. Unique sequences in each column were sorted by individual counts such that the most selected sequences appeared at the top of the column.

The test system of assay [2] is Human Myelin PLP. As to the kind of experiment: Phage display library screening (Example 2, Python script analysis), binding to Human Myelin PLP. The settings on record: combined unique sequence count, Python/R script analysis. The method, then:
(§4) Phage display library screens were used to identify peptides that bind to target proteins (including specific laminin trimers) that are expressed in human nerves, as described in Table 3. These screens were also carried out to identify peptides that could bind selectively to nerves versus muscle. Such peptides could therefore be useful for systemic in-vivo labeling of nerves during fluorescence assisted surgery. Specifically, m 13 phage libraries expressing 7 or 12 random amino acid peptides, or a cyclic peptide CX7C, on the N-terminus of the minor coat protein pIII (New England Biolabs; NEB) were processed through multiple rounds of selection for binding to target proteins expressed in nerves, or to excised human nerves, nerve extracts, or muscle, as described further below.
as §2, with “For screening against the specified target proteins in Table 1, including LN211, LN411, LN421, and LN521, the phage” for “The”, “by” for “through”, “TGI” for “TG1”
(§5) Python Script Analysis: For all NEB sequence datasets, a python script was used to translate, trim, and filter the peptide sequences. The script translated the nucleotide sequences, translating amber codons as glutamine in peptide sequences, and then trimmed the end sequences that come from the vector. Secondly, the script combined the unique counts of trimmed peptides with identical sequences. […] Another python script was used to group peptides from different assays according to protein target (Myelin Protein Zero, Myelin Proteolipid Protein, Myelin Basic Protein, and Nidogen-2) and also combine the unique sequence counts for each peptide. An R script was written to merge the peptide sequences from different data files and determine peptides specific for each protein target but absent from different protein binding datasets. Peptide sequences were ranked by unique sequence count.

Assay [3] deals with T1, Human Myelin Basic Protein (Homo sapiens, UniProt P02686). As to the kind of experiment: Phage display library screening (Example 1, Power BI analysis), binding to Human Myelin Basic Protein. On the set-up: Enzo 200-606-M001 from human; purchased Enzo 200-606-M001; host or cells: human brain (tissue-derived). Particulars: R3 Myelin Basic Protein, NextGen sequencing count of phage sequences distinct for this target.
Source text: as §1, §2, §3

Assay [4] concerns the target T1, Human Myelin Basic Protein. As to the kind of experiment: Phage display library screening (Example 2, Python script analysis), binding to Human Myelin Basic Protein. The settings on record: R3 Myelin Basic Protein; combined unique sequence count, Python/R script analysis. On the set-up: Enzo 200-606-M001 from human; purchased Enzo 200-606-M001; host or cells: human brain (tissue-derived). The procedure, abridged:
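Target protein-coated wells were panned with M13 phage libraries displaying 7- or 12-mer random or cyclic CX7C peptides on pIII, over up to 4 rounds (up to 24 h, 4° C), with glycine pH 2.0 elution. Pools from rounds 2–4 were NextGen-sequenced. Peptides specific to each target were ranked by unique sequence count.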

The target in assay [5] is T2, Human MPZ (Homo sapiens, UniProt P25189).
T2 construct: purchased Novoprotein (lysate); Bon Opus Biosciences (recombinant protein) NBL1 1321 (lysate); no catalogue number printed for the Bon Opus protein
T2 sequence (P25189 30-248): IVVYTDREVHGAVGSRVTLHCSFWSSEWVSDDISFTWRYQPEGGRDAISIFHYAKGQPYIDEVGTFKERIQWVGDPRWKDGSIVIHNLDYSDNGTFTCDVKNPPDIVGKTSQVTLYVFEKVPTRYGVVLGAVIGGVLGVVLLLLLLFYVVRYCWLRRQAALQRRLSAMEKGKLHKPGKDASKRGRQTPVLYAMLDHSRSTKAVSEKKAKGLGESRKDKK
As to the kind of experiment: Phage display library screening (Example 1, Power BI analysis), binding to Human MPZ. The settings on record: R3 Human MPZ, NextGen sequencing count of phage sequences distinct for this target.
Source text: as §1, §2, §3

In assay [6] the test system is Human MPZ. As to the kind of experiment: Phage display library screening (Example 2, Python script analysis), binding to Human MPZ. The settings on record: combined unique sequence count, Python/R script analysis. Here is the method:
as §4
as §2, with “For screening against the specified target proteins in Table 1, including LN211, LN411, LN421, and LN521, the phage” for “The”, “by” for “through”, “TGI” for “TG1”
as §5

T1 sequence (P02686 134-304): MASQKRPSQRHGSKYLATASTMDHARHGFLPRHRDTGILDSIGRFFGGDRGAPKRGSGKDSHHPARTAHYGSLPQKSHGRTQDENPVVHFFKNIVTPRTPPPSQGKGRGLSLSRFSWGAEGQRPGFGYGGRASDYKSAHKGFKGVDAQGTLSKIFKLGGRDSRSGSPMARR

Turning to FKMPIPT (R3 Myelin PLP-binding peptide), the Count in assay [1] and in assay [2] was 34 in each case.

The substance “HPSTWHK (R3 Myelin Basic Protein-binding peptide)” showed a Count in assay [3] of 18.

With “HRLPWHH (R3 Myelin Basic Protein-binding peptide)”, the Count in assay [3] and in assay [4] was 10 in each case.

“SVLRMLN (R3 Myelin Basic Protein-binding peptide)” returned a Count in assay [3] of 16.

For WPSISRP (R3 Human MPZ-binding peptide), the Count in assay [5] came out at 57; in assay [6] it was 58.

Consider LRFQIPP (R3 Myelin PLP-binding peptide), for which the Count in assay [1] and in assay [2] was 44 in each case.

For the substance RFELPAP (R3 Myelin PLP-binding peptide), the Count in assay [1] and in assay [2] was 52 each time.

In the case of TMASPAK (R3 Human MPZ-binding peptide), the Count stood at 52 in assay [5] and 58 in assay [6].

Regarding GPLRMAT (R3 Human MPZ-binding peptide), the Count in assay [5] worked out at 50; in assay [6], 51.

In turn, GLTPKLF (R3 Human MPZ-binding peptide) showed a Count in assay [5] of 48.

On to DPITRLK (R3 Human MPZ-binding peptide), for which the Count in assay [5] is 92; in assay [6] it was 93.

Take LALYARM (R3 Myelin PLP-binding peptide): the Count in assay [1] and in assay [2] was 44 in each case.

“DGKNTSN (R3 Myelin Basic Protein-binding peptide)” registered a Count in assay [3] of 10.

With LSSPLSL (R3 Human MPZ-binding peptide), the Count in assay [5] and in assay [6] was 56 each time.

Substance “LRPISHE (R3 Myelin Basic Protein-binding peptide)” gave a Count in assay [3] of 12.

Consider IKPPYTH (R3 Human MPZ-binding peptide), for which the Count in assay [5] stood at 78; in assay [6] it was 82.

For the substance “AWSTSSV (R3 Myelin Basic Protein-binding peptide)”, the Count in assay [3] and in assay [4] was 12 throughout.

In the case of SHLASRP (R3 Human MPZ-binding peptide), in assay [5], the Count came out at 97.

Consider SHSPGNK (R3 Human MPZ-binding peptide), for which the Count in assay [5] is 67; in assay [6] it was 79.

As to MTPHTSC (R3 Myelin PLP-binding peptide), in assay [1], the Count is on record as 62.

Turning to SAHAKHH (R3 Human MPZ-binding peptide), the values for the Count in assay [5] and in assay [6] were 51 and 52, respectively.

For KMAGHTV (R3 Human MPZ-binding peptide), the Count was determined as 51 in assay [5] and 54 in assay [6].

Turning to ALPLSAS (R3 Human MPZ-binding peptide), the Count in assay [5] was 196; in assay [6] it was 197.

Turning to “EHGYYKV (R3 Myelin Basic Protein-binding peptide)”, the results for the Count in assay [3] and in assay [4] were 16 and 17, respectively.

“MQTQGRV (R3 Myelin Basic Protein-binding peptide)” came in with a Count in assay [3] of 12.

With “LPMRILT (R3 Myelin Basic Protein-binding peptide)”, the Count in assay [3] and in assay [4] was 16 in each case.

Regarding “DPWVMLR (R3 Myelin Basic Protein-binding peptide)”, the Count in assay [3] and in assay [4] was 11 each time.

Take RVPHSRT (R3 Human MPZ-binding peptide): the Count in assay [5] came to 49.

On to ETTRNYG (R3 Human MPZ-binding peptide), for which the Count in assay [5] is 68; in assay [6] it was 69.

With “WTMKPNY (R3 Myelin Basic Protein-binding peptide)”, the figures for the Count in assay [3] and in assay [4] were 13 and 14, respectively.

FPVVTRN (R3 Myelin PLP-binding peptide) came in with a Count in assay [1] of 42.

Regarding TSPWELR (R3 Human MPZ-binding peptide), the values for the Count in assay [5] and in assay [6] were 107 and 108, respectively.

In turn, GPFLFTV (R3 Myelin PLP-binding peptide) yielded a Count in assay [1] of 47.

In assay [3], “ILLPSLN (R3 Myelin Basic Protein-binding peptide)” showed a Count of 13.

Substance “AITSRNA (R3 Myelin Basic Protein-binding peptide)” showed a Count in assay [3] of 15.

As to “SKSDAWR (R3 Myelin Basic Protein-binding peptide)”, the Count in assay [3] is recorded as 14.

For the substance DRNSVFW (R3 Human MPZ-binding peptide), the Count in assay [5] and in assay [6] was 50 throughout.

In the case of “AGQLMRCANC (R3 Myelin Basic Protein-binding peptide)”, the Count in assay [3] came to 12.

With TESLFPH (R3 Human MPZ-binding peptide), the figures for the Count in assay [5] and in assay [6] were 50 and 52, respectively.

For “GDERIVRTLSHN (R3 Human MPZ-binding peptide)”, the Count in assay [5] was 47.

As to “QIGVLPS (R3 Myelin Basic Protein-binding peptide)”, the Count in assay [3] is 11.

The substance “NDTKTPS (R3 Myelin Basic Protein-binding peptide)” returned a Count in assay [3] of 19.

With “QNTGLKW (R3 Myelin Basic Protein-binding peptide)”, the Count in assay [3] and in assay [4] was 11 each time.

As to “AGFPPNT (R3 Myelin Basic Protein-binding peptide)”, the Count in assay [3] came out at 10.

Take “SPDRTSL (R3 Myelin Basic Protein-binding peptide)”: the Count in assay [3] and in assay [4] was 12 in each case.

As to VLTKPMP (R3 Human MPZ-binding peptide), the Count in assay [5] and in assay [6] was 56 in each case.

Take VLKNNPT (R3 Human MPZ-binding peptide): the Count in assay [5] was 86; in assay [6], 87.

The record behind these values is patent publication US20240207421A1, “NERVE TARGETING PEPTIDES AND METHODS OF USE” (ALUME BIOSCIENCES, INC., priority 2020, published 2024).
